Our source for the Kd values is patent US20250361298A1 (published 2025).

Targets include cp1342; cp1352; cp1339; cp1340; cp1286; cp1292; cp1284; cp1285; cp1353; cp1338.
What all share (test): BLI
The target of the next assay is T1, LY6G6D.
T1 chain: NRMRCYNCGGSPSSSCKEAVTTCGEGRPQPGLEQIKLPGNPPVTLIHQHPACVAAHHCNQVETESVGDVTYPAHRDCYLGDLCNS

Positions count from the first letter of the chain named.

B1: cp203 (Fc fusion)
chain: T1 chain
modifications: biotinylated for BLI capture (site not stated)
By Kd is commonly meant a measure of binding affinity in units of concentration. A lower Kd goes with a tighter complex. As for B1, the equilibrium dissociation constant (Kd) with cp1342 turned out to be 1.73 nM; with cp1352 it was 1.54 nM; in the assay with cp1339, 0.824 nM; in the assay with cp1340 it was 2.52 nM; in the assay with cp1286, 1.12 nM; with cp1292 it was 6.97 nM. Further, the equilibrium dissociation constant (Kd) with cp1284 stood at 40.7 nM; with cp1285, 1.78 nM; with cp1353, 21.8 nM; with cp1338, 0.695 nM.

B2: CB21-499-177 (antibody, V domains shown)
VH: EVQLVESGGGVVQPGRSLRLSCAASGFTFSSYGMHWVRQAPGKGLEWVAVIWYDASNKEYAPSVKGRFTISRDNSKNTLYLQMNSLRAEDTAIYYCARPGEGDYWGQGTLVTVSS
VL: DIQMTQSPSSLSASVGDRVTITCRASQGVRNDFGWFQQKPGKAPKRLIYGASSLQSGVPSRFSGSGSGTEFTLTISSLQPEDFATYYCLQQNSYPWTFGQGTKLEIK
Molecule B2 returned a Kd with LY6G6D of 0.255 nM.

B3: CB21-499 (antibody, V domains shown)
VH: B2 VH with A55G, E59D, P62D
VL: B2 VL
In the assay with LY6G6D, B3 registered a Kd of 0.337 nM.
